The results in this text go back to PMC11482875 (bioRxiv, 2024).

This series deals with the molecule itself. Kind of series: SEC-MALS. On the technique in general: In gel filtration, larger molecules generally elute earlier.

Usually stoichiometry N stands for a count of units in the complex or per binding partner.

B1: miniTRIM37 RBhcc B-box-2 mutant (other)
chain: MDEQSVESIAEVFRCFICMEKLRDARLCPHCSKLCCFSCIRRWLTEQRAQCPHCRAPLQLRELVNCRWAEEVTQQLDTLQLCSLTKHEENEKDKCENHHEKLSVFCWTCKKCICAQCADWGGMHGGHTFKPLAEIYEQHVTKVNEEVAKLRRRLMELITERNQVAKRVPKAPPEEKEALIARGKALGEETELLESLLQEVEHQLRSCSKSELISKSSEILMMFQQVHRK
For the protein B1, the “stoichiometry N” value stood at 2.
